In patent US20260209350A1 (Alector, published 2026):

T1: mouse TREM2 on cells (mouse, UniProt Q99NH8 19-227)
T1 construct: whole, on cells; Used for the recombinant protein on BWZ/BW cells (with mouse DAP12) and for the native protein on mouse macrophages and dendritic cells; the cell type stands under assay; also called mTREM2; mTrem2
T1 sequence (looked up): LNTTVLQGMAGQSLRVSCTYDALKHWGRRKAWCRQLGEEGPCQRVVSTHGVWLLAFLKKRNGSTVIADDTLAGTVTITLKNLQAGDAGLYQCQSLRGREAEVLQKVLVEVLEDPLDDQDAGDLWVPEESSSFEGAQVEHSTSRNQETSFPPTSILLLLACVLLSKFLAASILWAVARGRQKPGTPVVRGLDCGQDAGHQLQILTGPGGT

T2: human TREM2 Fc fusion protein (human, UniProt Q9NZC2 19-174)
T2 construct: also called hTREM2-Fc; not shown: Fc part not specified
T2 sequence: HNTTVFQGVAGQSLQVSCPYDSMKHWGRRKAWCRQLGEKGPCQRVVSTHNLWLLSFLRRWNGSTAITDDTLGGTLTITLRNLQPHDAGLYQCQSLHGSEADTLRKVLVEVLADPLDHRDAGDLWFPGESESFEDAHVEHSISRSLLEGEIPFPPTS

T3: mouse TREM2 Fc fusion protein (mouse, UniProt Q99NH8 19-171)
T3 construct: also called mTREM2-Fc; not shown: Fc part not specified
T3 sequence (looked up): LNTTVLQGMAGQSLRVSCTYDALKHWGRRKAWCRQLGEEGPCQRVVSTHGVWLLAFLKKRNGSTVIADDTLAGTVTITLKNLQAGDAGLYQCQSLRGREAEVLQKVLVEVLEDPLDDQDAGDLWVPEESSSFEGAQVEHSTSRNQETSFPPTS

T4: human monomeric His tagged TREM2 protein (human, UniProt Q9NZC2 19-174)
T4 construct: also called hTREM2-HIS
T4 sequence: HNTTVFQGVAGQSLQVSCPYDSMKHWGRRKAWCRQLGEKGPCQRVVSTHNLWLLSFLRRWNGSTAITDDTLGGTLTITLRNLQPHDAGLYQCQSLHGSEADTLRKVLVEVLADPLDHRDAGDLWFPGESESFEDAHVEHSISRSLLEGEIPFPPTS

B1: Ab50 (antibody, human IgG1, V domains shown)
VH: QVQLVQSGAEVKKPGASVKVSCKASGYTFTSYYIHWVRQAPGQGLEWMGIINPSGGSTSYAQKFQGRVTMTRDTSTSTVYMELSSLRSEDTAVYYCARAPQESPYVFDIWGQGTMVTVSS
VL: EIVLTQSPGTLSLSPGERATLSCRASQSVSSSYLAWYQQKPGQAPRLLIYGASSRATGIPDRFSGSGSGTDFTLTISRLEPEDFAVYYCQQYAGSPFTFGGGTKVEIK
notes: human IgG1
B2: Ab5 (antibody, human IgG1, V domains shown)
VH: QVQLVQSGAEVKKPGASVKVSCKASGYTFTSYYIHWVRQAPGQGLEWMGIINPSGGSTSYAQKFQGRVTMTRDTSTSTVYMELSSLRSEDTAVYYCARAPQESPYVFDIWGQGTMVTVSS
VL: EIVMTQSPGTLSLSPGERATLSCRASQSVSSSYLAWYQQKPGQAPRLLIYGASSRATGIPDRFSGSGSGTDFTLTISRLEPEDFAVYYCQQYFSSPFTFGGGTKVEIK
notes: human IgG1
B3: Ab53 (antibody, human IgG1, V domains shown)
VH: QVQLVQSGAEVKKPGASVKVSCKASGYTFTSYYIHWVRQAPGQGLEWMGIINPSGGSTSYAQKFQGRVTMTRDTSTSTVYMELSSLRSEDTAVYYCARAPQESPYVFDIWGQGTMVTVSS
VL: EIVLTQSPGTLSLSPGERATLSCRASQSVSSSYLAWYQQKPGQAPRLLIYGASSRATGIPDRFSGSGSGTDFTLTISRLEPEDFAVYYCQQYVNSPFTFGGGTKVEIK
notes: human IgG1
B4: Ab15 (antibody, human IgG1, V domains shown)
VH: QVQLQESGPGLVKPSQTLSLTCTVSGGSISSGGYYWSWIRQHPGKGLEWIGNIYYSGSTVYNPSLKSRVTISVDTSKNQFSLKLSSVTAADTAVYYCARGLYGYGVLDVWGQGTMVTVSS
VL: DIQMTQSPSSLSASVGDRVTITCQASQDISNYLNWYQQKPGKAPKLLIYDASNLETGVPSRFSGSGSGTDFTFTISSLQPEDIATYYCQQFDTYPTFGGGTKVEIK
notes: human IgG1
B5: Ab36 (antibody, human IgG1, V domains shown)
VH: QVQLVESGGGVVQPGRSLRLSCAASGFTFSTYGMHWVRQAPGKGLEWVAVIWYDGSNKYYADSVKGRFTISRDNSKNTLYLQMNSLRAEDTAVYYCARGTGAAAASPAFDIWGQGTMVTVSS
VL: EIVLTQSPATLSLSPGERATLSCRASQSVSSYLAWYQQKPGQAPRLLIYDASNRATGIPARFSGSGSGTDFTLTISSLEPEDFAVYYCQQLFDWPTFGGGTKVEIK
notes: human IgG1
B6: Ab44 (antibody, human IgG1, V domains shown)
VH: QVQLVESGGGVVQPGRSLRLSCAASGFTFSTYGMHWVRQAPGKGLEWVAVIWYDGSNKYYADSVKGRFTISRDNSKNTLYLQMNSLRAEDTAVYYCARGTGAAAASPAFDIWGQGTMVTVSS
VL: EIVMTQSPATLSLSPGERATLSCRASQSVSSYLAWYQQKPGQAPRLLIYDSSNRATGIPARFSGSGSGTDFTLTISSLEPEDFAVYYCQQLVHWPTFGGGTKVEIK
notes: human IgG1
B7: Ab40 (antibody, human IgG1, V domains shown)
VH: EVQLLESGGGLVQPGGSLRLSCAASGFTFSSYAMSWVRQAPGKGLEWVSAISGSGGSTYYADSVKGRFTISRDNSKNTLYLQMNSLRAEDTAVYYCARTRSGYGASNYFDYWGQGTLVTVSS
VL: DIQMTQSPSSLSASVGDRVTITCRASQSISSYLNWYQQKPGKAPKLLIYAASSLQSGVPSRFSGSGSGTDFTLTISSLQPEDFATYYCQQGYAAPITFGGGTKVEIK
notes: human IgG1
B8: Ab16 (antibody, human IgG1, V domains shown)
VH: QLQLQESGPGLVKPSETLSLTCTVSGGSISSNSYYWGWIRQPPGKGLEWIGSIYYSGSTYYNPSLKSRVTISVDTSKNQFSLKLSSVTAADTAVYYCARGVLGYGVFDYWGQGTLVTVSS
VL: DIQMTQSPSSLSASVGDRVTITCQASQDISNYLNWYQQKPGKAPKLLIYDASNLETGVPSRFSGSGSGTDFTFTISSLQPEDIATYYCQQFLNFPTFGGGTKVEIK
notes: human IgG1
B9: Ab17 (antibody, human IgG1, V domains shown)
VH: QLQLQESGPGLVKPSETLSLTCTVSGGSISSNSYYWGWIRQPPGKGLEWIGSIYYSGSTYYNPSLKSRVTISVDTSKNQFSLKLSSVTAADTAVYYCARGVLGYGVFDYWGQGTLVTVSS
VL: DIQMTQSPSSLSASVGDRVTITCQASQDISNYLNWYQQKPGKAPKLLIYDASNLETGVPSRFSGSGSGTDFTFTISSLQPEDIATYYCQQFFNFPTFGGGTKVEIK
notes: human IgG1
B10: Ab58 (antibody, human IgG1, V domains shown)
VH: EVQLVQSGAEVKKPGESLKISCKGSGYSFTSYWIGWVRQMPGKGLEWMGIIYPGDSDTRYSPSFQGQVTISADKSISTAYLQWSSLKASDTAMYYCARLGIYSTGATAFDIWGQGTMVTVSS
VL: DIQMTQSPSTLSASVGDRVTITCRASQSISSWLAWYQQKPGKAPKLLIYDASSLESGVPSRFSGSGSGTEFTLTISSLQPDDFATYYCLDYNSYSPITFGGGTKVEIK
notes: human IgG1
B11: Ab13 (antibody, human IgG1, V domains shown)
VH: QVQLVQSGAEVKKPGASVKVSCKASGYTFTSYGISWVRQAPGQGLEWMGWISAYNGNTNYAQKLQGRVTMTTDTSTSTAYMELRSLRSDDTAVYYCARGPSHYYDLAWGQGTLVTVSS
VL: EIVLTQSPATLSLSPGERATLSCRASQSVSSYLAWYQQKPGQAPRLLIYDASNRATGIPARFSGSGSGTDFTLTISSLEPEDFAVYYCQQVSNYPITFGGGTKVEIK
notes: human IgG1
B12: Ab57 (antibody, human IgG1, V domains shown)
VH: QVQLVQSGAEVKKPGASVKVSCKASGYTFTNYGISWVRQAPGQGLEWMGWISAYNGNTNYAQKLQGRVTMTTDTSTSTAYMELRSLRSDDTAVYYCARGPTKAYYGSGSYVVFDPWGQGTLVTVSS
VL: EIVLTQSPATLSLSPGERATLSCRASQSVSSYLAWYQQKPGQAPRLLIYDASKRATGIPARFSGSGSGTDFTLTISSLEPEDFAVYYCQQVSLFPLTFGGGTKVEIK
notes: human IgG1
B13: Ab48 (antibody, human IgG1, V domains shown)
VH: QVQLVQSGAEVKKPGASVKVSCKASGYTFTSYYMHWVRQAPGQGLEWMGIINPSGGSTTYAQKFQGRVTMTRDTSTSTVYMELSSLRSEDTAVYYCARPGKSMDVWGQGTTVTVSS
VL: EIVLTQSPATLSLSPGERATLSCRASQSVSSYLAWYQQKPGQAPRLLIYDASNRATGIPARFSGSGSGTDFTLTISSLEPEDFAVYYCQQRAAYPITFGGGTKVEIK
notes: human IgG1
B14: Ab55 (antibody, human IgG1, V domains shown)
VH: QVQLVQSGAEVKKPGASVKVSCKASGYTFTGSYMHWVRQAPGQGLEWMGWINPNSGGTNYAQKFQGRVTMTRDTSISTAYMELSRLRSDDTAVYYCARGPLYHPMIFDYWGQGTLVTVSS
VL: EIVLTQSPATLSLSPGERATLSCRASQSVSSYLAWYQQKPGQAPRLLIYDASNRATGIPARFSGSGSGTDFTLTISSLEPEDFAVYYCQQLSTYPLTFGGGTKVEIK
notes: human IgG1
B15: Ab38 (antibody, human IgG1, V domains shown)
VH: QVQLVESGGGVVQPGRSLRLSCAASGFTFSTYGMHWVRQAPGKGLEWVAVIWYDGSNKYYADSVKGRFTISRDNSKNTLYLQMNSLRAEDTAVYYCARGAPVDYGGIEPEYFQHWGQGTLVTVSS
VL: EIVLTQSPATLSLSPGERATLSCRASQSVSSYLAWYQQKPGQAPRLLIYDASNRATGIPARFSGSGSGTDFTLTISSLEPEDFAVYYCQQIDFLPYTFGGGTKVEIK
notes: human IgG1
B16: Ab49 (antibody, human IgG1, V domains shown)
VH: QVQLVQSGAEVKKPGASVKVSCKASGYTFTSYYMHWVRQAPGQGLEWMGIINPSGGSTSYAQKFQGRVTMTRDTSTSTVYMELSSLRSEDTAVYYCARPAKTADYWGQGTLVTVSS
VL: EIVLTQSPATLSLSPGERATLSCRASQSVSSYLAWYQQKPGQAPRLLIYDASKRATGIPARFSGSGSGTDFTLTISSLEPEDFAVYYCQQRTSHPITFGGGTKVEIK
notes: human IgG1
B17: Ab46 (antibody, human IgG1, V domains shown)
VH: QVQLVQSGAEVKKPGASVKVSCKASGYTFTSYYMHWVRQAPGQGLEWMGIINPSGGSTSYAQKFQGRVTMTRDTSTSTVYMELSSLRSEDTAVYYCARPAKTADYWGQGTLVTVSS
VL: EIVLTQSPATLSLSPGERATLSCRASQSVSSYLAWYQQKPGQAPRLLIYDSSNRATGIPARFSGSGSGTDFTLTISSLEPEDFAVYYCQQRSNYPITFGGGTKVEIK
notes: human IgG1
B18: Ab67 (antibody, human IgG1, V domains shown)
VH: QVQLVQSGAEVKKPGASVKVSCKASGYTFTSYYMHWVRQAPGQGLEWMGIINPSGGSTTYAQKFQGRVTMTRDTSTSTVYMELSSLRSEDTAVYYCARPGKSMDVWGQGTTVTVSS
VL: EIVLTQSPATLSLSPGERATLSCRASQSVSSYLAWYQQKPGQAPRLLIYDASNRATGIPARFSGSGSGTDFTLTISSLEPEDFAVYYCQQRSHFPITFGGGTKVEIK
notes: human IgG1
B19: Ab47 (antibody, human IgG1, V domains shown)
VH: QVQLVQSGAEVKKPGASVKVSCKASGYTFTSYYMHWVRQAPGQGLEWMGIINPSGGSTTYAQKFQGRVTMTRDTSTSTVYMELSSLRSEDTAVYYCARPGKSMDVWGQGTTVTVSS
VL: EIVLTQSPGTLSLSPGERATLSCRASQSVSSYLAWYQQKPGQAPRLLIYDASNRATGIPARFSGSGSGTDFTLTISSLEPEDFAVYYCQQRILYPITFGGGTKVEIK
notes: human IgG1

What was measured:
mouse TREM2 on cells = target: T1, mouse TREM2 on cells; assay: FACS, mTrem2 cells
[1] = target: T2, human TREM2 Fc fusion protein; assay: ForteBio or MSD-SET, avid
[2] = target: T3, mouse TREM2 Fc fusion protein; assay: ForteBio or MSD-SET, avid
[3] = target: T4, human monomeric His tagged TREM2 protein; assay: ForteBio or MSD-SET, monovalent

Binder	MFI (mouse TREM2 on cells) [MFI]	Kd [1] [nM]	binding result [2]	Kd [3] [nM]	Kd [2] [nM]
B1	325	0.729	no binding	36.4	–
B2	310	0.697	no binding	30	–
B3	843	0.635	no binding	21.6	–
B4	4760	0.605	–	3.03	2.8
B5	1260	0.465	no binding	4.01	–
B6	1210	0.562	no binding	9.46	–
B7	577	0.197	–	7.97	6.03
B8	6380	1.09	–	2.47	1.36
B9	10300	0.792	–	3.46	1.67
B10	1870	0.575	no binding	2.73	–
B11	3250	1.49	–	66.7	1.71
B12	10200	0.436	–	18.3	0.598
B13	9770	0.35	–	9.08	1.41
B14	6220	2.22	–	91.7	1.17
B15	297	0.96	no binding	13.1	–
B16	4320	0.435	–	17.4	2.08
B17	4260	0.445	–	16.8	2.46
B18	6210	0.66	–	34.5	2.92
B19	10100	0.431	–	7.37	1.45
